Test results taken from PMC9945983 (Proceedings of the National Academy of Sciences of the …, 2023).

Assays:
SEC-MALS = target: the molecule itself; assay: SEC-MALS
[1] = target: T1, PARC6^685–819 as part of the PARC6^685–819–PDV1^263–272 fusion protein (Arabidopsis thaliana, UniProt Q8VY16 685-819); assay: crystal structure
T1 sequence (looked up): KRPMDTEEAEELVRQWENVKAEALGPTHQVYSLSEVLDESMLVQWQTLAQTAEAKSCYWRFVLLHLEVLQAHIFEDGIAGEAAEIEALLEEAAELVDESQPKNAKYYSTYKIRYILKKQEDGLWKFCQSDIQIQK

Binder | stoichiometry N (SEC-MALS) | binding result [1]
PARC6^640–819 (PARC6C), C-terminal domain of PARALOG OF ARC6 (domain or fragment, Arabidopsis thaliana, UniProt Q8VY16 640-819, looked up, intramolecular disulfide bond C657-C741 under oxidized conditions) NGIVGNIKVLIDMLKMHCGEHPDALYLKSSGQSATSLSHSASELHKRPMDTEEAEELVRQWENVKAEALGPTHQVYSLSEVLDESMLVQWQTLAQTAEAKSCYWRFVLLHLEVLQAHIFEDGIAGEAAEIEALLEEAAELVDESQPKNAKYYSTYKIRYILKKQEDGLWKFCQSDIQIQK | 2 | 
DHLDVMMARG (peptide, UniProt Q9FK13 263-272, looked up) [PDV1C (PDV1^263–272) as part of the PARC6^685–819–PDV1^263–272 fusion protein] |  | binds
